{"source": "paper PMC11151092", "about": "(Molecular Biology of the Cell, 2024)", "binders": {"B1": {"name": "Sec18 (enzyme)", "chain": "MFKIPGFGKAAANHTPPDMTNMDTRTRHLKVSNCPNNSYALANVAAVSPNDFPNNIYIIIDNLFVFTTRHSNDIPPGTIGFNGNQRTWGGWSLNQDVQAKAFDLFKYSGKQSYLGSIDIDISFRARGKAVSTVFDQDELAKQFVRCYESQIFSPTQYLIMEFQGHFFDLKIRNVQAIDLGDIEPTSAVATGIETKGILTKQTQINFFKGRDGLVNLKSSNSLRPRSNAVIRPDFKFEDLGVGGLDKEFTKIFRRAFASRIFPPSVIEKLGISHVKGLLLYGPPGTGKTLIARKIGTMLNAKEPKIVNGPEILSKYVGSSEENIRNLFKDAEAEYRAKGEESSLHIIIFDELDSVFKQRGSRGDGTGVGDNVVNQLLAKMDGVDQLNNILVIGMTNRKDLIDSALLRPGRFEVQVEIHLPDEKGRLQIFDIQTKKMRENNMMSDDVNLAELAALTKNFSGAEIEGLVKSASSFAINKTVNIGKGATKLNTKDIAKLKVTREDFLNALNDVTPAFGISEEDLKTCVEGGMMLYSERVNSILKNGARYVRQVRESDKSRLVSLLIHGPAGSGKTALAAEIALKSGFPFIRLISPNELSGMSESAKIAYIDNTFRDAYKSPLNILVIDSLETLVDWVPIGPRFSNNILQMLKVALKRKPPQDRRLLIMTTTSAYSVLQQMDILSCFDNEIAVPNMTNLDELNNVMIESNFLDDAGRVKVINELSRSCPNFNVGIKKTLTNIETARHDEDPVNELVELMTQSA"}, "B2": {"name": "R-SNARE Nyv1 (natural protein)", "chain": "MKRFNVSYVEVIKNGETISSCFQPFQKNENYGTITSANEQITPVIFHNLIMDMVLPKVVPIKGNKVTKMSMNLIDGFDCFYSTDDHDPKTVYVCFTLVDMPKILPIRILSGLQEYESNATNELLSSHVGQILDSFHEELVEYRNQTLNSSGNGQSSNGNGQNTISDIGDATEDQIKDVIQIMNDNIDKFLERQERVSLLVDKTSQLNSSSNKFRRKAVNIKEIMWWQKVKNITLLTFTIILFVSAAFMFFYLW"}, "B3": {"name": "3Q-SNARE complex (QaQbQc) on proteoliposomes (complex)", "chain 1": "MSFFDIEAQSSKGNSQQEPQFSTNQKTKELSNLIETFAEQSRVLEKECTKIGSKRDSKELRYKIETELIPNCTSVRDKIESNILIHQNGKLSADFKNLKTKYQSLQQSYNQRKSLFPLKTPISPGTSKERKDIHPRTEAVRQDPESSYISIKVNEQSPLLHNEGQHQLQLQEEQEQQQQGLSQEELDFQTIIHQERSQQIGRIHTAVQEVNAIFHQLGSLVKEQGEQVTTIDENISHLHDNMQNANKQLTRADQHQRDRNKCGKVTLIIIIVVCMVVLLAVLS", "chain 2": "MSSLLISYESDFKTTLEQAKASLAEAPSQPLSQRNTTLKHVEQQQDELFDLLDQMDVEVNNSIGDASERATYKAKLREWKKTIQSDIKRPLQSLVDSGDRDRLFGDLNASNIDDDQRQQLLSNHAILQKSGDRLKDASRIANETEGIGSQIMMDLRSQRETLENARQTLFQADSYVDKSIKTLKTMTRRLVANKFISYAIIAVLILLILLVLFSKFK", "chain 3": "MAANSVGKMSEKLRIKVDDVKINPKYVLYGVSTPNKRLYKRYSEFWKLKTRLERDVGSTIPYDFPEKPGVLDRRWQRRYDDPEMIDERRIGLERFLNELYNDRFDSRWRDTKIAQDFLQLSKPNVSQEKSQQHLETADEVGWDEMIRDIKLDLDKESDGTPSVRGALRARTKLHKLRERLEQDVQKKSLPSTEVTRRAALLRSLLKECDDIGTANIAQDRGRLLGVATSDNSSTTEVQGRTNNDLQQGQMQMVRDQEQELVALHRIIQAQRGLALEMNEELQTQNELLTALEDDVDNTGRRLQIANKKARHFNNSA"}, "B4": {"name": "Sec17 (natural protein)", "chain": "MSDPVELLKRAEKKGVPSSGFMKLFSGSDSYKFEEAADLCVQAATIYRLRKELNLAGDSFLKAADYQKKAGNEDEAGNTYVEAYKCFKSGGNSVNAVDSLENAIQIFTHRGQFRRGANFKFELGEILENDLHDYAKAIDCYELAGEWYAQDQSVALSNKCFIKCADLKALDGQYIEASDIYSKLIKSSMGNRLSQWSLKDYFLKKGLCQLAATDAVAAARTLQEGQSEDPNFADSRESNFLKSLIDAVNEGDSEQLSEHCKEFDNFMRLDKWKITILNKIKESIQQQEDDLL"}}, "key": {"[1]": {"target": "HOPS (homotypic fusion and vacuole protein sorting complex) (S. cerevisiae, UniProt P12868;Q03308;P27801;P20795;Q07468;P38959)", "test": "proteoliposome floatation"}, "[2]": {"target": "4-SNARE complex (R, Qa, Qb, Qc) on proteoliposomes (S. cerevisiae, UniProt Q12255;Q12241;Q04338;P32912)", "test": "proteoliposome floatation"}, "[3]": {"target": "B3", "test": "proteoliposome floatation"}, "[4]": {"target": "four-SNARE bundle with GST-Qa (GST-Qa, R, Qb, Qc) in detergent (S. cerevisiae, UniProt Q12241;Q12255;Q04338;P32912)", "test": "pull-down"}, "[5]": {"target": "T1, Qa-SNARE Vam3 in proteoliposomes (S. cerevisiae, UniProt Q12241 1-283)", "T1 sequence": "B3 chain 1", "test": "co-IP"}}}
{"binder": "B1", "values": [{"measurement": "binding result", "setting": "[1]", "result": "binds"}, {"measurement": "binding result", "setting": "[2]", "result": "binds"}, {"measurement": "binding result", "setting": "[3]", "result": "binds"}, {"measurement": "binding result", "setting": "[4]", "result": "binds"}]}
{"binder": "B2", "values": [{"measurement": "binding result", "setting": "[1]", "result": "binds"}, {"measurement": "binding result", "setting": "[5]", "result": "binds"}]}
{"binder": "B3", "values": [{"measurement": "binding result", "setting": "[1]", "result": "binds"}]}
{"binder": "B4", "values": [{"measurement": "binding result", "setting": "[4]", "result": "binds"}]}
